# Assay results taken from US20210179728A1 (OSE IMMUNOTHERAPEUTICS, published 2021).
# Positions count from the first letter of the chain named.
# T1: OX40Fc (human, UniProt P43489 29-216)
# T1 construct: not shown: Fc; not specified
# T1 sequence (looked up): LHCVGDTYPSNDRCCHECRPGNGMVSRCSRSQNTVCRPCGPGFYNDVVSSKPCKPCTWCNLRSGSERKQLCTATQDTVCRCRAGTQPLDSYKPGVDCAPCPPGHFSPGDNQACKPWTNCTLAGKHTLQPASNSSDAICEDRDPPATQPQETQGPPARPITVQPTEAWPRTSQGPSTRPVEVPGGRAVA
# B1: modified anti-SIRPa HEFLB antibody with ECD of OX40L on the light chain (antibody, human IgG4 S228P, kappa)
# heavy: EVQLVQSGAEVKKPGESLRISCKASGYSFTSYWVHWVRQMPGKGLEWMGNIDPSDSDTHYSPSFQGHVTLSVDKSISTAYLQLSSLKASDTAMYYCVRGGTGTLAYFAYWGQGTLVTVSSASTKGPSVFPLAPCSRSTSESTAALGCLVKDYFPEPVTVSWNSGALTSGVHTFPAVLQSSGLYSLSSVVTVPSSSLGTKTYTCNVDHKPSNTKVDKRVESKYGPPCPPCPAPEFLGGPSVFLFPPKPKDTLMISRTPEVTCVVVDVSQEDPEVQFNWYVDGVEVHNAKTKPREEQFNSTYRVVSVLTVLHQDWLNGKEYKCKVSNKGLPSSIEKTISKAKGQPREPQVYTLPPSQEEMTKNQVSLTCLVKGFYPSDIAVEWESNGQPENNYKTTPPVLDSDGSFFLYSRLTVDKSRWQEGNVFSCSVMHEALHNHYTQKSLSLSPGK
# light: DVVMTQSPLSLPVTLGQPASISCRSSQSLVHSYGNTYLYWFQQRPGQSPRLLIYRVSNRFSGVPDRFSGSGSGTDFTLKISRVEAEDVGVYYCFQGTHVPYTFGGGTKVEIKRTVAAPSVFIFPPSDEQLKSGTASVVCLLNNFYPREAKVQWKVDNALQSGNSQESVTEQDSKDSTYSLSSTLTLSKADYEKHKVYACEVTHQGLSSPVTKSFNRGECGGGGSGGGGSGGGGSQVSHRYPRIQSIKVQFTEYKKEKGFILTSQKEDEIMKVQNNSVIINCDGFYLISLKGYFSQEVNISLHYQKDEEPLFQLKKVRSVNSLMVASLTYKDKVYLNVTTDNTSLDDFHVNGGELILIHQNPGEFCVL
# notes: as m32, ECD of OX40L; also called VH+VLprot (OX40L); HEF + LB-OX40L
# B2: HFLA (antibody, human IgG4 S228P, kappa, V domains shown)
# VH: EVQLVQSGAEVKKPGESLRISCKASGYSFTSYWVHWVRQMPGKGLEWMGNIDPSDSDTHYSPSFQGHVTLSVDKSISTAYLQLSSLKASDTAMYYCVRGGTGTMAYFAYWGQGTLVTVSS
# VL: DVVMTQSPLSLPVTLGQPASISCRSSQSLVHSYGNTYLYWYQQRPGQSPRLLIYRVSNRFSGVPDRFSGSGSGTDFTLKISRVEAEDVGVYFCFQGTHVPYTFGGGTKVEIKR
# notes: humanized 18D5 variant
# B3: HCLB (antibody, human IgG4 S228P, kappa, V domains shown)
# VH: B2 VH with Y106W
# VL: B2 VL with Y41F, F92Y
# notes: humanized 18D5 variant; also called humanized 18D5 variant HCLB
# B4: HALB (antibody, human IgG4 S228P, kappa, V domains shown)
# VH: B2 VH with S28T, M48I, S61N, P62Q, S63K, Q65K, G66D, Y106W
# VL: B2 VL with Y41F, F92Y
# notes: humanized 18D5 variant; also called humanized 18D5 variant HALB
# B5: HEFLA (antibody, human IgG4 S228P, kappa, V domains shown)
# VH: B2 VH with M104L
# VL: B2 VL
# notes: humanized 18D5 variant
# B6: HELB (antibody, human IgG4 S228P, kappa, V domains shown)
# VH: B2 VH with M104L, Y106W
# VL: B2 VL with Y41F, F92Y
# notes: humanized 18D5 variant; also called humanized 18D5 variant HELB
# B7: HBLA (antibody, human IgG4 S228P, kappa, V domains shown)
# VH: B2 VH with S61N, P62Q, S63K, Q65K, G66D, Y106W
# VL: B2 VL
# notes: humanized 18D5 variant; also called humanized 18D5 variant HBLA
# B8: HBLB (antibody, human IgG4 S228P, kappa, V domains shown)
# VH: B2 VH with S61N, P62Q, S63K, Q65K, G66D, Y106W
# VL: B2 VL with Y41F, F92Y
# notes: humanized 18D5 variant; also called humanized 18D5 variant HBLB
# B9: HALA (antibody, human IgG4 S228P, kappa, V domains shown)
# VH: B2 VH with S28T, M48I, S61N, P62Q, S63K, Q65K, G66D, Y106W
# VL: B2 VL
# notes: humanized 18D5 variant; also called humanized 18D5 variant HALA
# B10: modified anti-SIRPa HEFLB antibody with ECD of CD80 on the light chain (antibody, human IgG4 S228P, kappa)
# heavy: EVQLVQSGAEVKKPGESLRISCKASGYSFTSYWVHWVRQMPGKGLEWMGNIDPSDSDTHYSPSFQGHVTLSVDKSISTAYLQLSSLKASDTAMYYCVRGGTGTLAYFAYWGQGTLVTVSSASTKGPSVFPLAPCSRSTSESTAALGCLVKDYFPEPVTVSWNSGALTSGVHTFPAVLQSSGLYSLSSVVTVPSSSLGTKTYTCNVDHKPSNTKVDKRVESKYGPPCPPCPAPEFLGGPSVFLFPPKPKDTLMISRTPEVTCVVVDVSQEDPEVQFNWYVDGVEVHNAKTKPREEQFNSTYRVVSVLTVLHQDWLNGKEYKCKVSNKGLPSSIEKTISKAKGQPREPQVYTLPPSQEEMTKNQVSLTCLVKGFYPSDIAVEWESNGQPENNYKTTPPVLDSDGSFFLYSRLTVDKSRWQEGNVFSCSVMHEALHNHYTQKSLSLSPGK
# light: DVVMTQSPLSLPVTLGQPASISCRSSQSLVHSYGNTYLYWFQQRPGQSPRLLIYRVSNRFSGVPDRFSGSGSGTDFTLKISRVEAEDVGVYYCFQGTHVPYTFGGGTKVEIKRTVAAPSVFIFPPSDEQLKSGTASVVCLLNNFYPREAKVQWKVDNALQSGNSQESVTEQDSKDSTYSLSSTLTLSKADYEKHKVYACEVTHQGLSSPVTKSFNRGECGGGGSGGGGSGGGGSVIHVTKEVKEVATLSCGHNVSVEELAQTRIYWQKEKKMVLTMMSGDMNIWPEYKNRTIFDITNNLSIVILALRPSDEGTYECVVLKYEKDAFKREHLAEVTLSVKADFPTPSISDFEIPTSNIRRIICSTSGGFPEPHLSWLENGEELNAINTTVSQDPETELYAVSSKLDFNMTTNHSFMCLIKYGHLRVNQTFNWNTTKQEHFPDN
# notes: as m32, ECD of CD80; also called VH+VLprot (CD80); HEF + LB-CD80
# B11: modified anti-SIRPa HEFLB antibody with ECD of CD80 on the heavy chain (antibody, human IgG4 S228P, kappa)
# heavy: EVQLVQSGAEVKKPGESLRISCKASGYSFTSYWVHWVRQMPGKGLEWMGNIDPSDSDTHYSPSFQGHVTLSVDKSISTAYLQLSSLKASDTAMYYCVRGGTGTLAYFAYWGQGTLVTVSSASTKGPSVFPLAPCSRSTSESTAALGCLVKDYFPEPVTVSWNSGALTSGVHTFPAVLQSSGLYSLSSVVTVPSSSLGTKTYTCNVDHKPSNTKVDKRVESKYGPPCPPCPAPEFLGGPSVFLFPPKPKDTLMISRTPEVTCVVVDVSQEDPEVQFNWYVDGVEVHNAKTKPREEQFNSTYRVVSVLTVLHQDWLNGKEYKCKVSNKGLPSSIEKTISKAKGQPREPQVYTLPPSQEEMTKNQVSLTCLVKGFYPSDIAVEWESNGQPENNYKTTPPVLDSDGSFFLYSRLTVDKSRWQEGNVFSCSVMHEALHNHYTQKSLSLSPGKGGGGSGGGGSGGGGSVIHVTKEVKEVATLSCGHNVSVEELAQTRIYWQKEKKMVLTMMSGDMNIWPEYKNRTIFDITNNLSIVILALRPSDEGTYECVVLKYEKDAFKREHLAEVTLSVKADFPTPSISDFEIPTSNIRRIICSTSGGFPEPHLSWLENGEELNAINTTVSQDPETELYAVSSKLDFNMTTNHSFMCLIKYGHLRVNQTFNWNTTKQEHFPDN
# light: DVVMTQSPLSLPVTLGQPASISCRSSQSLVHSYGNTYLYWFQQRPGQSPRLLIYRVSNRFSGVPDRFSGSGSGTDFTLKISRVEAEDVGVYYCFQGTHVPYTFGGGTKVEIKRTVAAPSVFIFPPSDEQLKSGTASVVCLLNNFYPREAKVQWKVDNALQSGNSQESVTEQDSKDSTYSLSSTLTLSKADYEKHKVYACEVTHQGLSSPVTKSFNRGEC
# notes: as m25, ECD of CD80; also called VHprot+VL (CD80); VH-CD80
# B12: modified anti-SIRPa HEFLB antibody with ECD of OX40L on the heavy chain (antibody, human IgG4 S228P, kappa)
# heavy: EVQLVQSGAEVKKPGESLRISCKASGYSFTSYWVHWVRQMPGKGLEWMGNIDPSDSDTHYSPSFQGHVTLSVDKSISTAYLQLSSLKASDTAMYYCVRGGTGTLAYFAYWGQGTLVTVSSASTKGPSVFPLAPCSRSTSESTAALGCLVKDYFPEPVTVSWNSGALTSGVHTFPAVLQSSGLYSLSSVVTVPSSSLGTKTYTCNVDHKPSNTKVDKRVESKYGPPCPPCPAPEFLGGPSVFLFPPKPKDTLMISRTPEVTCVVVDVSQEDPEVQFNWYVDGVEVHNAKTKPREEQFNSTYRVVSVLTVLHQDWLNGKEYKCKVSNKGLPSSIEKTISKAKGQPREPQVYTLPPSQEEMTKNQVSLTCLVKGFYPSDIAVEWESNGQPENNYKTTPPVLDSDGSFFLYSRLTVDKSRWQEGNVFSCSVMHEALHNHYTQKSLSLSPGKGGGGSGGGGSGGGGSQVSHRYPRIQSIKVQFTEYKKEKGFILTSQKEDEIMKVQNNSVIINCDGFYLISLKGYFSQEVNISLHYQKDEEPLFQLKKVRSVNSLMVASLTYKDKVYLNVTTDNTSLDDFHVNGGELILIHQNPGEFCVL
# light: B11 light
# notes: as m25, ECD of OX40L; also called VHprot+VL (OX40L); HEF-OX40L + LB
# Experiments:
# [1] = target: T2, recombinant hSIRPa (Sino Biologicals, reference 11612-H08H) (human, UniProt P78324 31-370); test: ELISA on immobilized SIRPa-His, peroxidase anti-human IgG, DO 450nm [panel OX40L]
# T2 construct: also called SIRPa-His; human SIRPa-His; not shown: His tag (histidine tail)
# T2 sequence (P78324 31-370 limits assumed): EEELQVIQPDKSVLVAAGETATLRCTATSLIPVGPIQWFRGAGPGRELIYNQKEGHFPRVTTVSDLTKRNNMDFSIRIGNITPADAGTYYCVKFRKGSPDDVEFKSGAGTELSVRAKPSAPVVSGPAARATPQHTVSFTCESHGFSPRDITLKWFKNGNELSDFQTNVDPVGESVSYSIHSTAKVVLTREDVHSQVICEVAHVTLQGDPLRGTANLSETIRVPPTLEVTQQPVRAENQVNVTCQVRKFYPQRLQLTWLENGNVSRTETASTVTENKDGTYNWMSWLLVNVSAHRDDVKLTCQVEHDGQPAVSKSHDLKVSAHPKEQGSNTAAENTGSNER
# Protocol: (§1) Method: For ELISA assay, recombinant hSIRPa (Sino Biologicals, Beijing, China; reference 11612-H08H) was immobilized on plastic at 0.5 μg/ml in carbonate buffer (pH9.2) and different modified anti-SIRPa antibodies were added to measure binding to SIRPa.
# OX40Fc = target: T1, OX40Fc; test: ELISA: modified antibody (concentration on the axis) captured on SIRPa-His, then OX40Fc, detected with mouse anti-human OX40 [panel OX40L]
# From the text: FIG. 24. Ligand binding assay with the different modified anti-SIRPa antibodies by ELISA.
# [2] = target: T2, recombinant hSIRPa (Sino Biologicals, …); test: ELISA on immobilized hSIRPa-His, anti-human IgG detection, second experiment
# Protocol: (§2) Method: The binding activity of the anti-SIRPa antibodies was assessed by ELISA.
# [3] = target: T3, recombinant hSIRPg-His (Sino Biologicals, reference 11828-H08H) (human, UniProt Q9P1W8 29-360); test: BLI (Blitz); SIRPg-His on Ni-NTA biosensor, antibody at 10 ug/ml or 20 ug/ml (Example 9) [B, table A]
# T3 construct: also called human SIRPg-His; not shown: His tag
# T3 sequence (Q9P1W8 29-360 limits assumed): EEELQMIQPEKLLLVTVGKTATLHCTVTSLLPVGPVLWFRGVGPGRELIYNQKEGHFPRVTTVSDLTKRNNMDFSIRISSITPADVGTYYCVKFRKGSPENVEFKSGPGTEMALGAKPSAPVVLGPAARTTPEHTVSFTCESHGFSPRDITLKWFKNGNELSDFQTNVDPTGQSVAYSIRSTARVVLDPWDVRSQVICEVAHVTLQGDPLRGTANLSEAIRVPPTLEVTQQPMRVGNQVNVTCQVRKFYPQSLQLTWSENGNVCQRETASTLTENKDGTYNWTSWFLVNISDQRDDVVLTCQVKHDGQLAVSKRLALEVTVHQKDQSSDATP
# Protocol: (§3) FIG. 8. (A) Affinity analysis by Blitz of anti-SIRP antibodies on human SIRPg recombinant protein. SIRPg-His recombinant protein was immobilized onto a NINTA biosensor and the indicated antibodies were added at 10 μg/ml. […] (B) Binding analysis by ELISA assay of anti-SIRP antibodies on SIRPg (human SIRPg-His coating and anti-human kappa detection).
# (§4) Method: This method was performed with a Blitz (Forte Bio; USA; reference C22-2 No 61010-1). Recombinant hSIRPg-His (Sino Biologicals, Beijing, China; reference 11828-H08H) was immobilized at 10 μg/ml by histidine tail into a Ni-NTA biosensor (Forte Bio; USA; reference 18-0029) for 30 seconds. Then, an anti-SIRPa antibody was associated at 20 μg/mL for 120 seconds. The dissociation of anti-SIRPa antibody was made in kinetics buffer for 120 seconds. Analysis of data was made with the Blitz pro 1.2 software, which calculated association constant (ka) and dissociation constant (kd) and determined the affinity constant KD […].
# [4] = target: T4, recombinant hSIRPb-His (Antibodies-online, reference ABIN3077231) (human, UniProt Q5TFQ8 30-371); test: BLI (Blitz); SIRPb-His on Ni-NTA biosensor, antibody at 20 ug/ml [B, table A]
# T4 construct: also called SIRPb-His (Blitz); not shown: His tag
# T4 sequence (Q5TFQ8 30-371): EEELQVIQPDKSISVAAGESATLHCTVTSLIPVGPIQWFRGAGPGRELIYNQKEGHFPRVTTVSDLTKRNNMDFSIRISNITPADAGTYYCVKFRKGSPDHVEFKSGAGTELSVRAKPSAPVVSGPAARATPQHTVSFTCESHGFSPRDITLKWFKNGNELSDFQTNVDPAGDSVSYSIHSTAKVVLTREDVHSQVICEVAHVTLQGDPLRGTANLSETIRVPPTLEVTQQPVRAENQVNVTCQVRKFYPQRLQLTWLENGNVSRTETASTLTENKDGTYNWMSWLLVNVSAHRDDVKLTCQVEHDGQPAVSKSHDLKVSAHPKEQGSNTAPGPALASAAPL
# Protocol: as §3, with “7.” for “8.”, “SIRPb” for “SIRPg”, “SIRPb-His” for “SIRPg-His”, “20” for “10”, “analysis” for “analysis by ELISA assay”, “antibodies” for “antibodies on SIRPg”
# as §4, with “hSIRPb-His (Antibodies-online; USA;” for “hSIRPg-His (Sino Biologicals, Beijing, China;”, “ABIN3077231)” for “11828-H08H)”
# [5] = target: T2, recombinant hSIRPa (Sino Biologicals, …); test: SPR (Biacore); SIRPa-His immobilized on CM5 chip, antibody injected
# Protocol: FIG. 2. Affinity analysis by Biacore of anti-SIRP antibodies on human SIRPa recombinant protein. SIRPa-His recombinant protein was immobilized onto a CM5 chip at 5 μg/ml (500 RU) and the indicated antibodies were added at different concentration.
# Method: Recombinant hSIRPa (Sino Biologicals, Beijing, China; reference 11612-H08H) was immobilized into a CM5 sensor chip (GeHealthcare; France) at 5 μg/ml (500 RU) and antibodies were applied at different concentrations with a flow rate of 40 μl/min. Analysis was performed with a BIAcore 3000 (Biacore, GeHealthcare).
# [6] = target: T2, recombinant hSIRPa (Sino Biologicals, …); test: competition ELISA on immobilized SIRPa-His; competitor biotinylated CD47-Fc at 6 ug/ml, streptavidin-peroxidase [second experiment table]
# Protocol: Method: For competitive ELISA assay, recombinant hSIRPa (Sino Biologicals, Beijing, China; reference 11612-H08H) was immobilized on plastic at 0.5 μg/ml in carbonate buffer (pH9.2).
# [7] = target: T2, recombinant hSIRPa (Sino Biologicals, …); test: ELISA on immobilized hSIRPa-His, anti-human IgG detection, first experiment; first experiment
# Protocol: as §2
# [8] = target: T2, recombinant hSIRPa (Sino Biologicals, …); test: ELISA on immobilized hSIRPa-His, anti-human IgG detection, third experiment
# Protocol: as §2
# [9] = target: T2, recombinant hSIRPa (Sino Biologicals, …); test: ELISA on immobilized SIRPa-His, peroxidase anti-human IgG, DO 450nm [panel CD80]
# Protocol: as §1
# CTLA4-Fc = target: T5, CTLA4-Fc (human, UniProt P16410 36-161, limits assumed); test: ELISA: modified antibody (concentration on the axis) captured on SIRPa-His, then CTLA4-Fc, detected with mouse anti-human CTLA4 [panel CD80]
# T5 construct: not shown: Fc; not specified
# T5 sequence (P16410 36-161 limits assumed): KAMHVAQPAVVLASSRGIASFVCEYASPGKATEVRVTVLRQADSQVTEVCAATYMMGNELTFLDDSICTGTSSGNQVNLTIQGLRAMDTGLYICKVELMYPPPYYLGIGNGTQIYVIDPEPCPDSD
binder,measurement,setting,value
B1,binding result,[1],binds
same,binding result,OX40Fc,binds
B2,EC50,[2],4.61 ng/mL
same,Kd,[3],0.0476 µM
same,koff,[3],0.0118 s⁻¹
same,kon,[3],248000 M⁻¹ s⁻¹
same,Kd,[4],0.0258 µM
same,koff,[4],0.00192 s⁻¹
same,kon,[4],74500 M⁻¹ s⁻¹
same,Kd,[5],0.000217 µM
same,koff,[5],0.000186 s⁻¹
same,kon,[5],857000 M⁻¹ s⁻¹
same,IC50,[6],146 ng/mL
same,EC50,[7],5.1 ng/mL
B3,EC50,[2],5.59 ng/mL
B4,EC50,[8],2.53 ng/mL
B5,Kd,[3],0.0524 µM
same,koff,[3],0.0114 s⁻¹
same,kon,[3],217000 M⁻¹ s⁻¹
same,Kd,[4],0.0124 µM
same,koff,[4],0.00122 s⁻¹
same,kon,[4],98300 M⁻¹ s⁻¹
same,Kd,[5],0.000264 µM
same,koff,[5],0.000148 s⁻¹
same,kon,[5],559000 M⁻¹ s⁻¹
same,IC50,[6],191 ng/mL
same,EC50,[7],7.1 ng/mL
B6,EC50,[2],4.13 ng/mL
B7,EC50,[8],2.68 ng/mL
B8,EC50,[8],2.95 ng/mL
B9,Kd,[3],0.0461 µM
same,koff,[3],0.00709 s⁻¹
same,kon,[3],154000 M⁻¹ s⁻¹
same,Kd,[4],0.0064 µM
same,koff,[4],0.00085 s⁻¹
same,kon,[4],133000 M⁻¹ s⁻¹
same,EC50,[7],3.9 ng/mL
B10,EC50 (read off the curve),[9],~8 ng/mL
same,binding result,CTLA4-Fc,binds
B11,EC50 (read off the curve),[9],~8 ng/mL
same,binding result,CTLA4-Fc,binds
B12,binding result,[1],binds
same,binding result,OX40Fc,binds
